Assay results from paper PMC7319273.

Columns and labels:
[1] = target: SARS-CoV-2 Spike protein extracellular domain (S-ECD), as used in ELISA and BLI (SARS-CoV-2) (UniProt P0DTC2)
[2] = target: SARS-CoV-2 Spike protein extracellular domain (S-ECD), as used in ELISA and BLI (SARS-CoV-2) (UniProt P0DTC2); experiment: BLI

4A8 (human monoclonal antibody), sequence (VH): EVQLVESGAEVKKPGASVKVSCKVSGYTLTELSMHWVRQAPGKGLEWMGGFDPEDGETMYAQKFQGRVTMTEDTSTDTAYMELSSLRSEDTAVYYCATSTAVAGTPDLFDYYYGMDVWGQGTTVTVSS
4A8 (human monoclonal antibody), sequence (VL): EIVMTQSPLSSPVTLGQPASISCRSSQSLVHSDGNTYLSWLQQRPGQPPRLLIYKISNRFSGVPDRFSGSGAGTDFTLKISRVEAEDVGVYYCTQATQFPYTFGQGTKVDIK

## 4A8 (human monoclonal antibody)
[1]
  neutralization of authentic SARS-CoV-2 in Vero-E6 cells, EC50: 0.61 µg/mL
[2]
  Kd: < 2.14 nM
